Assay results from publication PMC8994517.

Molecular target: Human Hsp90α (human) (UniProt P07900)
Experiment: cryo-EM structure

stoichiometry N (GR per Hsp90 dimer): 1
Substance: MBP (maltose-binding protein)-GR ligand-binding domain (LBD) (F602S) (520-777) (from UniProt P04150 520-777) (domain or fragment)
